Earlier results in PMC10368991.

Molecular target: LolB (Escherichia coli) (UniProt P61320)
Sequence (P61320 22-207): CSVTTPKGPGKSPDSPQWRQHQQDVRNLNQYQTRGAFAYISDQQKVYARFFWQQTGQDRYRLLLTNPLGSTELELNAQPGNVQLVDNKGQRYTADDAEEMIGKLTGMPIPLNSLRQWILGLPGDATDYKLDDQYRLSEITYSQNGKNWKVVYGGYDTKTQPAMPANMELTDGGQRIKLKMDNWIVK

Sequence of LolA (P61316 22-203): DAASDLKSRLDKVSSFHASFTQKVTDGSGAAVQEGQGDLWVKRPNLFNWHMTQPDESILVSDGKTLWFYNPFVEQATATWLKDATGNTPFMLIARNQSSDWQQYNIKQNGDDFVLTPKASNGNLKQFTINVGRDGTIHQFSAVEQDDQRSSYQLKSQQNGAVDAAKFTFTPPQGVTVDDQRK

For LolA (from UniProt P61316), the Kd is given as 31.5 µM.
